# Measurements: article doi:10.1101/2023.06.15.545071 (2023)
# T1: full-length ETR1, purified and fluorescently labelled (Arabidopsis, UniProt P49333 1-738, fluorescent label (dye and site not stated))
# T1 chain: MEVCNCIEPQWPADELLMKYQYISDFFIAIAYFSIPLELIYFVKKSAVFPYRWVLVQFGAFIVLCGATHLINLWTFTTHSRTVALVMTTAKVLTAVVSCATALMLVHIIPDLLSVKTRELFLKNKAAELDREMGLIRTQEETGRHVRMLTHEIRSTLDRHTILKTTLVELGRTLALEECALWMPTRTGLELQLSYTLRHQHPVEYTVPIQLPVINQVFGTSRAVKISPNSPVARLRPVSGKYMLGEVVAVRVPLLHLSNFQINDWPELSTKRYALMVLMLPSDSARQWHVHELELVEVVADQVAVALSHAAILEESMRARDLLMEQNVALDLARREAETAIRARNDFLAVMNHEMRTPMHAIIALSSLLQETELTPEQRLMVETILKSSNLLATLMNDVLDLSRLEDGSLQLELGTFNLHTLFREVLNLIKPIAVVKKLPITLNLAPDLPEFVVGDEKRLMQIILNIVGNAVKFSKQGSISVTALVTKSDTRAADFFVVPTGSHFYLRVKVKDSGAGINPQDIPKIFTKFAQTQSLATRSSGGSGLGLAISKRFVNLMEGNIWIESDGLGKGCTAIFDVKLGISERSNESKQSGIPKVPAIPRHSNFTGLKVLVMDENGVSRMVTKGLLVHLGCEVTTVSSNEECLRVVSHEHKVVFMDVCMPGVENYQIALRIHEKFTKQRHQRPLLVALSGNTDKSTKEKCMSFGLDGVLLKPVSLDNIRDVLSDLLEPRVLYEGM
# Assays:
# Assay in all cases: MST
# [1] = target: T1, full-length ETR1, purified and …
# [2] = target: ETR1 1-598
# [3] = target: ETR1 1-157
# [4] = target: ETR1 1-407
# [5] = target: ETR1 1-307
binder,measurement,setting,value
MKPRLCFNFRRRSISPCYISISYLLVAKLFKLFKIH [synthetic full length PLS peptide PLS(FL)],Kd,[1],1900 nM
same,Kd,[2],2920 nM
same,Kd,[3],1520 nM
same,Kd,[4],1650 nM
same,Kd,[5],1780 nM
